# According to patent publication US20210269525A1 (BIOCYTOGEN PHARMACEUTICALS BEIJING, published 2021):
# T1: Cynomolgus CD3 epsilon Protein, His Tag (Acrobiosystems, Cat #CDE-05226) (cynomolgus (Macaca fascicularis), UniProt Q95LI5 22-117)
# T1 construct: also called monkey CD3e; not shown: His tag
# T1 sequence: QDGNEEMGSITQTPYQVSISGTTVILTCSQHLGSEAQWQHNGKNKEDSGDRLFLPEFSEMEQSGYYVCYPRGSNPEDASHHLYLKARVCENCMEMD
# How the values were obtained:
# [1] = biological target: T2, human CD3e (T-cell surface glycoprotein CD3 epsilon chain) (human, UniProt P07766 23-207); experiment: flow cytometry, human PBMC, antibody 0.01 ug/mL, anti-human IgG Fc-Alexa Fluor647 (1:500), anti-hTcRβ-PerCP (1:30)
# T2 construct: Target of the anti-hCD3e antibodies on human PBMC, Jurkat cells and cells expressing human CD3e; on T cells it is part of the CD3/TCR complex; also called hCD3e; CD3e on human PBMC
# Experimental: (§1) PBMC cells were collected from a human subject. After being thawed, the cells were cultured for 3-4 hours. The medium was then discarded, and the cells were resuspended in phosphate-buffered saline (PBS). The cell concentration was then adjusted to 2×10⁶/25 μl PBS.
# (§2) A 96-well plate was prepared. 25 ul of cell suspension was added to each well. […] The cells and the antibodies were incubated. After centrifuge, the residues were discarded. The samples were washed again. 25 ul of PBS was then added to each well to resuspend cells.
# (§3) Anti-human IgG Fc-Alexa Fluror647 (1:500) and anit-hTcRβ PerCP (1:30) were then added to each well. The cells and the antibodies were incubated and then the cells were washed again by PBS. 300 ul of PBS was then added to each well to resuspend the cells. FACS was performed.
# [2] = biological target: T3, monkey CD3e (Macaca fascicularis) on PBMC (Macaca fascicularis, UniProt Q95LI5 22-198); experiment: flow cytometry, Macaca fascicularis PBMC, antibody concentration not given, anti-human IgG Fc-Alexa Fluor647 (1:500), anti-hTcRβ-PerCP (1:30)
# T3 construct: Target on PBMC from Macaca fascicularis; also called mfCD3e; monkey PBMC
# Experimental: A 96-well plate was prepared. 25 ul of cell suspension was added to each well. Anti-hCD3 antibodies were added to the 96-well plate. The cells and the antibodies were incubated for 15 minutes at 4° C. 185 ul PBS was then added to each well. After centrifuge at 2000 rpm for 5 minutes, the medium was discarded. The samples were washed again. 25 ul of PBS was then added to resuspend cells.
# Anti-human IgG Fc-Alexa Fluror647 (1:500) and anti-hTcRβ PerCP (1:30) were then added to each well. The cells and the antibodies were incubated for 15 minutes at 4° C. 185 ul PBS was then added to each well. After centrifuge, the residues were discarded. The samples were washed again. 25 ul of PBS was then added to resuspend cells. […] In contrast, anti-hTcRβ PerCP cannot bind to monkey PBMC.
# [3] = biological target: T2, human CD3e (T-cell surface glycoprotein …); experiment: flow cytometry, human PBMC, antibody 1 ug/mL, anti-human IgG Fc-Alexa Fluor647 (1:500), anti-hTcRβ-PerCP (1:30)
# Experimental: as §1, §2, §3
# [4] = biological target: T4, Histidine-tagged human CD3e protein (human, UniProt P07766 23-126); experiment: SPR (Biacore), human CD3e
# T4 construct: also called hCD3e-His; not shown: His tag
# [5] = biological target: T1, Cynomolgus CD3 epsilon Protein, His Tag …; experiment: SPR (Biacore), cynomolgus CD3e His tag
# Experimental: The binding affinity of the anti-hCD3e antibodies with monkey CD3e (Cynomolgus CD3 epsilon Protein (SEQ ID NO: 39 AA Gln 22-Asp 117), His Tag, Acrobiosystems, Cat #CDE-05226) were also measured using surface plasmon resonance (SPR) using Biacore (Biacore, INC, Piscataway N.J.) by the methods as described in the examples.
# [6] = biological target: T2, human CD3e (T-cell surface glycoprotein …); experiment: cell-based or functional assay
# [7] = biological target: T2, human CD3e (T-cell surface glycoprotein …); experiment: flow cytometry, human PBMC, antibody 0.1 ug/mL, anti-human IgG Fc-Alexa Fluor647 (1:500), anti-hTcRβ-PerCP (1:30)
# Experimental: as §1, §2, §3
"upper left quadrant, percent of cells AF647+ / hTcRβ-PerCP- [1]","upper right quadrant, percent of cells AF647+ / hTcRβ-PerCP+ [1]","upper left quadrant, percent of cells AF647+ / hTcRβ-PerCP- [2]","upper right quadrant, percent of cells AF647+ / hTcRβ-PerCP+ [2]","upper left quadrant, percent of cells AF647+ / hTcRβ-PerCP- [3]","upper right quadrant, percent of cells AF647+ / hTcRβ-PerCP+ [3]",Kd [4],koff [4],kon [4],Kd [5],koff [5],kon [5],"EC50, luciferase of Jurkat-Luc-NFAT cells; antibody from supernatant [6]","EC50, luciferase of Jurkat-Luc-NFAT cells; purified antibody [6]","upper left quadrant, percent of cells AF647+ / hTcRβ-PerCP- [7]","upper right quadrant, percent of cells AF647+ / hTcRβ-PerCP+ [7]",Binder
2.69%,10.8%,48.4%,2.33%,11.9%,77.6%,1.86 nM,0.000105 s⁻¹,56300 M⁻¹ s⁻¹,13.2 nM,0.000597 s⁻¹,45200 M⁻¹ s⁻¹,0.294 µg/mL,0.524 µg/mL,9.8%,50.7%,"10A4-H1K1-IgG1-LALA (antibody, V domains shown, Humanized; human IgG1 with LALA mutations; also called H1K1 (humanized 10A4)) VH: QVQLVQSGAEVKKPGASVKVSCKASGYTFTSYYIHWVRQAPGQRLEFIGWIYPGNVNAKYNEKFKGRVTITTDKSASTAYMELSSLRSEDTAVYYCAIKGGNYDWGQGTLVTVSS VL: DVVMTQSPLSLPVTLGQPASISCQSSQSLLDSDGKTYLNWLQQRPGQSPRRLIYLVSKLGSGVPDRFSGSGSGTDFTLKISRVEAEDVGVYYCWQGTHFPRTFGGGTKVEIK"
2.53%,11.6%,47%,2.56%,13.5%,75.8%,2.14 nM,0.000127 s⁻¹,59300 M⁻¹ s⁻¹,5.18 nM,0.000298 s⁻¹,57500 M⁻¹ s⁻¹,0.272 µg/mL,0.726 µg/mL,10.8%,57.8%,"10A4-H1K2-IgG1-LALA (antibody, V domains shown, Humanized; human IgG1 with LALA mutations; also called H1K2 (humanized 10A4)) VH: QVQLVQSGAEVKKPGASVKVSCKASGYTFTSYYIHWVRQAPGQRLEFIGWIYPGNVNAKYNEKFKGRVTITTDKSASTAYMELSSLRSEDTAVYYCAIKGGNYDWGQGTLVTVSS VL: DVVMTQSPLSLPVTLGQPASISCQSSQSLLDSDGKTYLNWLQQRPGQSPRRLIYLVSKLGSGVPDRFSGSGSGTDFTLKISRVEAEDVGVYYCWQGTHFPRTFGGGTKLEIK"
2.67%,16.6%,46%,1.54%,11%,79.2%,2.21 nM,0.000133 s⁻¹,60200 M⁻¹ s⁻¹,11.8 nM,0.000508 s⁻¹,43100 M⁻¹ s⁻¹,0.393 µg/mL,0.583 µg/mL,10.2%,56.2%,"10A4-H1K3-IgG1-LALA (antibody, V domains shown, Humanized; human IgG1 with LALA mutations; also called H1K3 (humanized 10A4)) VH: QVQLVQSGAEVKKPGASVKVSCKASGYTFTSYYIHWVRQAPGQRLEFIGWIYPGNVNAKYNEKFKGRVTITTDKSASTAYMELSSLRSEDTAVYYCAIKGGNYDWGQGTLVTVSS VL: not shown"
2.8%,14.5%,51.1%,2.59%,14.9%,74.2%,1.38 nM,8.85e-05 s⁻¹,63900 M⁻¹ s⁻¹,9.12 nM,0.000497 s⁻¹,54500 M⁻¹ s⁻¹,0.416 µg/mL,0.472 µg/mL,7.13%,45.6%,"10A4-H2K3-IgG1-LALA (antibody, V domains shown, Humanized; human IgG1 with LALA mutations; also called H2K3 (humanized 10A4)) VH: QVQLVQSGAEVKKPGASVKISCKASGYTFTSYYIHWVRQAPGQRLEFIGWIYPGNVNAKYNEKFKGRATITTDKSASTAYMELSSLRSEDTAVYYCAIKGGNYDWGQGTLVTVSS VL: not shown"
2.25%,16%,44.9%,1.49%,15%,74.4%,1.6 nM,0.000103 s⁻¹,64100 M⁻¹ s⁻¹,,,,0.253 µg/mL,,8.54%,57.1%,"10A4-H4K2-IgG1-LALA (antibody, V domains shown, Humanized; human IgG1 with LALA mutations; also called H4K2 (humanized 10A4)) VH: QVQLQQSGAEVKKPGASVRISCKASGYTFTSYYIHWVRQRPGQGLEFIGWIYPGNVNAKYNEKFKGRATLTTDKSASTAYMELSSLRSEDTAVYFCAIKGGNYDWGQGTLVTVSS VL: DVVMTQSPLSLPVTLGQPASISCQSSQSLLDSDGKTYLNWLQQRPGQSPRRLIYLVSKLGSGVPDRFSGSGSGTDFTLKISRVEAEDVGVYYCWQGTHFPRTFGGGTKLEIK"
2.67%,14.8%,49.4%,2.32%,11.6%,76.8%,1.84 nM,0.000111 s⁻¹,60500 M⁻¹ s⁻¹,4.66 nM,0.000261 s⁻¹,55900 M⁻¹ s⁻¹,0.266 µg/mL,0.313 µg/mL,10.3%,59.4%,"10A4-H2K1-IgG1-LALA (antibody, V domains shown, Humanized; human IgG1 with LALA mutations; also called H2K1 (humanized 10A4)) VH: QVQLVQSGAEVKKPGASVKISCKASGYTFTSYYIHWVRQAPGQRLEFIGWIYPGNVNAKYNEKFKGRATITTDKSASTAYMELSSLRSEDTAVYYCAIKGGNYDWGQGTLVTVSS VL: DVVMTQSPLSLPVTLGQPASISCQSSQSLLDSDGKTYLNWLQQRPGQSPRRLIYLVSKLGSGVPDRFSGSGSGTDFTLKISRVEAEDVGVYYCWQGTHFPRTFGGGTKVEIK"
2.68%,12.5%,82.7%,0.225%,11.5%,76.6%,1.05 nM,6.33e-05 s⁻¹,60300 M⁻¹ s⁻¹,,,,0.477 µg/mL,,11%,54.4%,"10A4-H4K3-IgG1-LALA (antibody, V domains shown, Humanized; human IgG1 with LALA mutations; also called H4K3 (humanized 10A4)) VH: QVQLQQSGAEVKKPGASVRISCKASGYTFTSYYIHWVRQRPGQGLEFIGWIYPGNVNAKYNEKFKGRATLTTDKSASTAYMELSSLRSEDTAVYFCAIKGGNYDWGQGTLVTVSS VL: not shown"
